From paper PMC12416549 (2024)
Numbering of substitutions follows the chain as printed. In names and notes the source's numbering stands.

B1: L38Q (designed binder)
chain: MTLQELLREEALRRAEAEAFRYALELLAEKFPEQKEYQLDLAEEIESQIRSLSGVDVEDVRKFLDKEWAWVKELLAEHPAELAEVEAARAARLAELRAEVEAKVAA
B2: R92Y (designed binder)
chain: B1 chain with Q38L, R92Y
B3: A94T (designed binder)
chain: B1 chain with Q38L, A94T
B4: V104N (designed binder)
chain: B1 chain with Q38L, V104N
B5: W70H (designed binder)
chain: B1 chain with Q38L, W70H
B6: A105K (designed binder)
chain: B1 chain with Q38L, A105K
B7: A91T (designed binder)
chain: B1 chain with Q38L, A91T
B8: L26M (designed binder)
chain: B1 chain with L26M, Q38L
B9: L41G (designed binder)
chain: B1 chain with Q38L, L41G
B10: A42W (designed binder)
chain: B1 chain with Q38L, A42W
B11: P32V (designed binder)
chain: B1 chain with P32V, Q38L
B12: L96Q (designed binder)
chain: B1 chain with Q38L, L96Q
B13: F31A (designed binder)
chain: B1 chain with F31A, Q38L
B14: Q48K (designed binder)
chain: B1 chain with Q38L, Q48K
B15: F31Q (designed binder)
chain: B1 chain with F31Q, Q38L
B16: K30W (designed binder)
chain: B1 chain with K30W, Q38L
B17: G54W (designed binder)
chain: B1 chain with Q38L, G54W
B18: E58M (designed binder)
chain: B1 chain with Q38L, E58M
B19: K62T (designed binder)
chain: B1 chain with Q38L, K62T
B20: A106V (designed binder)
chain: B1 chain with Q38L, A106V
B21: A11I (designed binder)
chain: B1 chain with A11I, Q38L
B22: E101H (designed binder)
chain: B1 chain with Q38L, E101H
B23: A28Y (designed binder)
chain: B1 chain with A28Y, Q38L
B24: K72D (designed binder)
chain: B1 chain with Q38L, K72D
B25: A83C (designed binder)
chain: B1 chain with Q38L, A83C
B26: W70D (designed binder)
chain: B1 chain with Q38L, W70D
B27: A105N (designed binder)
chain: B1 chain with Q38L, A105N
B28: V55N (designed binder)
chain: B1 chain with Q38L, V55N
B29: V55E (designed binder)
chain: B1 chain with Q38L, V55E
B30: V104Q (designed binder)
chain: B1 chain with Q38L, V104Q
B31: E9F (designed binder)
chain: B1 chain with E9F, Q38L
B32: L12C (designed binder)
chain: B1 chain with L12C, Q38L
B33: A15E (designed binder)
chain: B1 chain with A15E, Q38L
B34: Q34T (designed binder)
chain: B1 chain with Q34T, Q38L
B35: E73G (designed binder)
chain: B1 chain with Q38L, E73G
B36: G54R (designed binder)
chain: B1 chain with Q38L, G54R
B37: H78N (designed binder)
chain: B1 chain with Q38L, H78N
B38: L64F (designed binder)
chain: B1 chain with Q38L, L64F
B39: A88D (designed binder)
chain: B1 chain with Q38L, A88D
B40: V85P (designed binder)
chain: B1 chain with Q38L, V85P
B41: R14K (designed binder)
chain: B1 chain with R14K, Q38L
B42: E36V (designed binder)
chain: B1 chain with E36V, Q38L
B43: G54T (designed binder)
chain: B1 chain with Q38L, G54T
B44: W70Y (designed binder)
chain: B1 chain with Q38L, W70Y
B45: L24A (designed binder)
chain: B1 chain with L24A, Q38L
B46: W70T (designed binder)
chain: B1 chain with Q38L, W70T
B47: E33H (designed binder)
chain: B1 chain with E33H, Q38L
B48: H78C (designed binder)
chain: B1 chain with Q38L, H78C
B49: E10K (designed binder)
chain: B1 chain with E10K, Q38L
B50: D40Q (designed binder)
chain: B1 chain with Q38L, D40Q
B51: L7A (designed binder)
chain: B1 chain with L7A, Q38L
B52: E67R (designed binder)
chain: B1 chain with Q38L, E67R
B53: W70K (designed binder)
chain: B1 chain with Q38L, W70K
B54: F63D (designed binder)
chain: B1 chain with Q38L, F63D
B55: F20M (designed binder)
chain: B1 chain with F20M, Q38L

Biological target: T1, TNFR1 (Homo sapiens, UniProt P19438)
T1 chain: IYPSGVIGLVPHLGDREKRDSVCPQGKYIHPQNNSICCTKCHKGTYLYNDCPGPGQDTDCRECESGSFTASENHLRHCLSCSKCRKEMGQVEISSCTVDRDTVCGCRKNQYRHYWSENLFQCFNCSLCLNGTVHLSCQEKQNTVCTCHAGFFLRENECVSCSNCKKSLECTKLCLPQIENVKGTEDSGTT
Assay: yeast display SC50

First: B1
Second: B2
The “apparent Kd (screen)” value of the first is 34-fold higher: 16.7 nM for the first, 0.49 nM for the second.

B3 and B4 are within 1.5-fold of each other in “apparent Kd (screen)” value: 0.539 nM for the first, 0.593 nM for the second.

First: B5
Second: B6
The “apparent Kd (screen)” value of the first is 14-fold higher: 12.5 nM for the first, 0.869 nM for the second.

B7 and B8 are the same in “apparent Kd (screen)” value: 0.593 nM for the first, 0.593 nM for the second.

First: B9
Second: B10
The “apparent Kd (screen)” value of the first is 2.6-fold higher: 12.5 nM for the first, 4.83 nM for the second.

B11 and B12 are within 1.5-fold of each other in “apparent Kd (screen)” value: 0.593 nM for the first, 0.539 nM for the second.

First: B13
Second: B14
The “apparent Kd (screen)” value of the first is 14-fold lower: 0.49 nM for the first, 7.07 nM for the second.

B15 and B16 are the same in “apparent Kd (screen)” value: 0.653 nM for the first, 0.653 nM for the second.

Compared with B17, B18 is 5.6-fold lower in “apparent Kd (screen)” value: 2.73 nM for the first, 0.49 nM for the second.

B19 and B20 are within 1.5-fold of each other in “apparent Kd (screen)” value: 0.539 nM for the first, 0.653 nM for the second.

First: B21
Second: B22
The “apparent Kd (screen)” value of the first is 2-fold lower: 0.368 nM for the first, 0.718 nM for the second.

Going from B23 to B24, the “apparent Kd (screen)” value falls from 22.2 nM to 1.05 nM (21-fold).

First: B25
Second: B26
The “apparent Kd (screen)” value of the first is 14-fold lower: 0.869 nM for the first, 12.5 nM for the second.

Compared with B27, B28 is 1.6-fold higher in “apparent Kd (screen)” value: 0.593 nM for the first, 0.956 nM for the second.

First: B29
Second: B30
The “apparent Kd (screen)” value of the first is 31-fold higher: 15.2 nM for the first, 0.49 nM for the second.

Compared with B31, B32 is 1.6-fold higher in “apparent Kd (screen)” value: 0.49 nM for the first, 0.79 nM for the second.

B33 and B34 are within 1.5-fold of each other in “apparent Kd (screen)” value: 0.718 nM for the first, 0.539 nM for the second.

Compared with B35, B36 is 4.6-fold higher in “apparent Kd (screen)” value: 0.718 nM for the first, 3.3 nM for the second.

Going from B37 to B38, the “apparent Kd (screen)” value rises from 0.539 nM to 0.869 nM (1.6-fold).

Compared with B39, B40 is 3.8-fold higher in “apparent Kd (screen)” value: 0.593 nM for the first, 2.25 nM for the second.

Going from B41 to B42, the “apparent Kd (screen)” value rises from 0.49 nM to 1.05 nM (2.1-fold).

Going from B43 to B44, the “apparent Kd (screen)” value rises from 0.446 nM to 1.86 nM (4.2-fold).

Compared with B45, B46 is 19-fold higher in “apparent Kd (screen)” value: 1.54 nM for the first, 29.5 nM for the second.

B47 and B48 are within 1.5-fold of each other in “apparent Kd (screen)” value: 0.49 nM for the first, 0.593 nM for the second.

First: B49
Second: B50
The “apparent Kd (screen)” value of the first is 19-fold higher: 8.56 nM for the first, 0.446 nM for the second.

B51 and B52 are within 1.5-fold of each other in “apparent Kd (screen)” value: 11.4 nM for the first, 8.56 nM for the second.

B53 and B54 are within 1.5-fold of each other in “apparent Kd (screen)” value: 5.84 nM for the first, 7.07 nM for the second.

For B55, the “apparent Kd (screen)” value was 0.869 nM.
